Experimental data: patent publication US20250129173A1 (SHENYANG SUNSHINE PHARMACEUTICAL, published 2025)
Several values for one entry are separate records, joined by “and”; a condition that tells them apart may be missing. Equal entries are not always repeated.

T1: recombinant human PRLR-ECD protein (Acro, item No. PRR-H52Ha) (human, UniProt P16471 25-234)
T1 construct: Bought protein; also called PRLR-His
T1 sequence: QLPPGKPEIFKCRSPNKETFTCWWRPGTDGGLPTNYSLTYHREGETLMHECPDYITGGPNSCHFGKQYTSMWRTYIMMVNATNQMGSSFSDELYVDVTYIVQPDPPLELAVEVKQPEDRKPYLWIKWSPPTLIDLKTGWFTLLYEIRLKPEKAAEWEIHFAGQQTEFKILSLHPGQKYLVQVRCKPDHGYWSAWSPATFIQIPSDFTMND

T2: human PRLR on the cell surface (T47D human breast cancer cells; BAF3-huPRLR cells) (human, UniProt P16471 25-622)
T2 sequence (looked up): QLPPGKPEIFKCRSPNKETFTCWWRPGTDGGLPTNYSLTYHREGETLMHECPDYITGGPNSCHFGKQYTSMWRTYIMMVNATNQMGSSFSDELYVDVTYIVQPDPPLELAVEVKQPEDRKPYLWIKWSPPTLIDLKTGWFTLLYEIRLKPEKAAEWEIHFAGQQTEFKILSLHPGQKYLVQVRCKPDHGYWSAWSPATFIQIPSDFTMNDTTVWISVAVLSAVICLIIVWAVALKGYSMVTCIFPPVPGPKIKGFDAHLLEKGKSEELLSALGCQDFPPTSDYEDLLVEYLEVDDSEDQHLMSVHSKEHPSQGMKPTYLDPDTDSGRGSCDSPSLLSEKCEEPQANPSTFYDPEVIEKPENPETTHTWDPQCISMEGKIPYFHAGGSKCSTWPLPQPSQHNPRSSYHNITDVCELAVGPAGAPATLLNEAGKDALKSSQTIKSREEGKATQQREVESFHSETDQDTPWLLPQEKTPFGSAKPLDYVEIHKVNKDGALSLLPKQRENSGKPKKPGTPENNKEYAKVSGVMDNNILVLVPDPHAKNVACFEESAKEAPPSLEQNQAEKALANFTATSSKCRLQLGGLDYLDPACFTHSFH

T3: mouse PRLR protein (Beijing Sinobiological, item No. 50457-M08H) (mouse, UniProt Q08501 20-229)
T3 construct: Bought; also called murine-derived PRLR-ECD
T3 sequence (looked up): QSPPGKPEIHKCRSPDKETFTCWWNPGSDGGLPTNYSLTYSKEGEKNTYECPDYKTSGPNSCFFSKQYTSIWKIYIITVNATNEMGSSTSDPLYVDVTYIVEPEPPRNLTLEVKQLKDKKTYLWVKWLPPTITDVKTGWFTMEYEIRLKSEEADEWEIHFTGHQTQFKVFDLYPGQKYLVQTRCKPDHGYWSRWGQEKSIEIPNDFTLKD

T4: PRLR-ECD Fibronectin type-III 2 polypeptide 7 (189-208) (human, N-terminal biotin (bio-))
T4 peptide: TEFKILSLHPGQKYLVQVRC


Experiments:
[1] = biological target: T1, recombinant human PRLR-ECD protein …; assay: indirect ELISA, coated human PRLR-ECD
[2] = biological target: T2, human PRLR on the cell surface (T47D …); assay: cell-based or functional assay
[3] = biological target: T2, human PRLR on the cell surface (T47D …); assay: flow cytometry on T47D cells
Procedure: In this experiment, a human mammary ductal carcinoma cell T47D was used as a target cell, and SPGA02-260 was used as a primary antibody. SPGA02-260 was serially diluted from 20 μg/mL in six gradients according to a 6-fold gradient. An antibody diluted with a 100 μL gradient and 100 μL of a T47D cell were incubated for 30 min at room temperature (The cell was suspended in 100 μL of an RPMI-1640 serum-free medium (purchased from Gibco, item No.: 61870036). The maximum working concentration of a monoclonal antibody was 10 μg/mL). The cell was washed twice with PBS to remove unbound SPGA02-260. Then, the cell was incubated with 50 μL of anti-murine fluorescent secondary antibody containing 5 μg/mL Alexa Fluor 488 label (purchased from Thermo and Invitrogen, item No.: A11001) at 4° C. for 40 min under light protection. The cell was washed twice with PBS to remove an unbound secondary antibody. Finally, the cell was resuspended in 100 μL of PBS. The binding affinity of SPGA02-260 to the cells was determined by a flow cytometry (purchased from Beckman, model: CytoFLEX). Data obtained were fitted and analyzed by GraphPad Prism6 software.

[4] = biological target: T3, mouse PRLR protein (Beijing …); assay: indirect ELISA, coated mouse PRLR protein
Procedure: A mouse PRLR protein (purchased from Beijing Sinobiological Company, item No. 50457-M08H), i.e., mouse PRLR, was coated in a 96-well ELISA plate according to 0.5 μg/well. The cross-reactivity of SPGA02-ch18, and SPGA02-ch260 to the mouse PRLR was determined. Other specific experimental methods were referred to Embodiment 8.

[5] = biological target: T4, PRLR-ECD Fibronectin type-III 2 …; assay: peptide ELISA
[6] = biological target: T1, recombinant human PRLR-ECD protein …; assay: indirect ELISA, coated human PRLR-ECD 0.5 µg/mL
Procedure: An indirect enzyme-linked immunosorbent assay was used to determine the binding ability of an murine-derived antibody to human PRLR as follows: diluting a recombinant human PRLR-ECD protein to 0.5 μg/mL with a coating solution (a phosphate coating buffer, pH 7.4), adding a solution to an enzyme-labeled plate with 100 μL/well, and coating the plate at 4° C. overnight. The plate was washed once with PBST. 300 μL/well of blocking solution (1% BSA-PBST) was added. The plate was incubated at 37° C. for 2 h and then washed three times with PBST. The purified antibody was diluted to 1 μg/mL with 1% BSA-PBST. After a solution was diluted with 1:3 gradient, the enzyme-labeled plate was added with 100 μL/well, and incubated at 37° C. for 1 h. The plate was washed with PBST 3 times. A HRP-labeled goat anti-mouse IgG secondary antibody (purchased from Abcam, item No.: ab6789) was added and incubate at 37° C. for 30 min. After the plate was washed 3 times with PBST, residual droplets were patted to be dry as much as possible with a blotting paper. 100 μL of TMB (purchased from KPL, item No.: 52-00-03) was added to each well, placed at room temperature (20±5° C.) and protected from light for 5 min. […] An OD value at 450 nm of an enzyme-labeled instrument was read to analyze the binding ability of the antibody to be tested to a target antigen PRLR-His.

EC50 [1] | IC50 of inhibition of growth of BAF3-huPRLR cells (CCK8, 72 h) [2] | EC50 [3] | EC50 [4] [µg/mL] | binding result [5] | EC50 [6] | Binder
0.00898 µg/mL and 0.06 nM | 8.28 ng/ml and 0.06 nM | – | – | – | – | humanized monoclonal antibody SPGA02-hu260 (antibody, human IgG1, kappa, V domains shown, Expressed in Expi-293F cells) VH: QVQLQESGPGLVKPSETLSLTCTVSGFSLTRNGVSWIRQPPGKGLEWVGVIWGDGSTNYNSAFMSRVTISVDTSKNQVSLKLSSVTAADTAVYYCAKEGLYYYGRYFDVWGQGTTVTVSS VL: DIQMTQSPSSLSASVGDRVTITCRASQDVGSALAWYQQKPGKVPKLLIYWASTRHTGVPSRFSGSGSGTDFTLTISSLQPEDVATYYCQQYSNYPLTFGGGTKLEIKR
0.0129 µg/mL and 0.09 nM | – | 0.21 nM and 0.031 µg/mL | 0.297 | – | – | chimeric antibody SPGA02-ch260 (antibody, human IgG1, kappa, V domains shown, Expressed in Expi293F cells; also called SPGA01-ch260) VH: QVQLKESGPGLVAPSQSLSITCTVSGFSLTRNGVSWVRQPPGKGLEWLGIIWGDGSTNYHSALISRLSISKDNSKSQVFLKLNSLQTDDTATYYCAKEGLYYYGRYFDVWGAGTTVTVSS VL: DIVMTQSHKFMSTSVGDRVSITCKASQDVGSAVAWYQQKPGQSPKVLIYWASTRHTGVPDRFTGSGSGTDFTLTISNVQSEDLADYFCQQYSNYPLTFGGGTKLEIRR
– | – | 0.026 µg/mL and 0.17 nM | – | binds | 0.0209 µg/mL and 0.14 nM | murine-derived anti-human PRLR monoclonal antibody SPGA02-260 (antibody, V domains shown, Mouse monoclonal antibody purified from hybridoma supernatant by protein A; also called SPHA02-260) VH: QVQLKESGPGLVAPSQSLSITCTVSGFSLTRNGVSWVRQPPGKGLEWLGIIWGDGSTNYHSALISRLSISKDNSKSQVFLKLNSLQTDDTATYYCAKEGLYYYGRYFDVWGAGTTVTVSS VL: DIVMTQSHKFMSTSVGDRVSITCKASQDVGSAVAWYQQKPGQSPKVLIYWASTRHTGVPDRFTGSGSGTDFTLTISNVQSEDLADYFCQQYSNYPLTFGGGTKLEIR
